The supplement of paper PMC7877785
± gives the uncertainty stated by the source.

Test: self-splicing fitness, log relative to wild type (ln ratio); higher = more splicing; Tetrahymena group I intron in knt gene, E. coli kanamycin selection, DiMSum; sequences stand for … in CUCUCU…GGAGGGAAAAGUUAUCAGGCAUGCACCUGGUAGCUAGUCUUUAAACCAAUAGAUUGCAUCGGUUUAAAAGGCAAGACCGUCAAAUUGCGGGAAAGGGGUCAACAGCCGUUCAGUACCAAGUCUCAGGGGAAACUUUGAGAUGGCCUUGCAAAGGGUAUGGUAAUAAGCUGACGGACAUGGUCCUAACCACGCAGCCAAGUCCUAAGUCAACAGAUCUUCUGUUGAUAUGGAUGCAGUUCACAGACUAAAUGUCGGUCGGGGAAGAUGUAUUCUUCUCAUAAGAUAUAGUCGGACCUCUCCUUAAUGGGAGCUAGCGGAUGAAGUGAUGCAACACUGGAGCCGCUGGGAACUAAUUUGUAUGCGAAAGUAUAUUGAUUAGUUUUGGAGUACUCGUGGUCG
In short: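 A randomised library covering all eight P1ex-region intron nucleotides was built with the intron in the knt kanamycin-resistance gene on pET-22b(+) and held in E. coli BL21(DE3). Cells were grown overnight at 37°C or 30°C on LB agar, with or without 25 μg/mL kanamycin, plus 100 μg/mL carbenicillin, 50 μM IPTG and 0.2% rhamnose, and pooled colonies were amplicon-sequenced on an Illumina HiSeq 2500. DiMSum fitness is the error-weighted combination of wild-type-normalised replicate fold changes, kanamycin versus none.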

Row | Sequence | self-splicing fitness (ln) (30 °C) | self-splicing fitness (ln) (37 °C)
1 | CUACAGCAAUAUUACGCCGA | -2.29 ± 0.18 | -3.15 ± 0.43
2 | CGUCAGCAAUAUUACGUCCA | -1.97 ± 0.085 | -1.36 ± 0.11
3 | CCCUAGCAAUAUUACGGUCA | -2.57 ± 0.18 | -2.65 ± 0.28
4 | AGUCAGCAAUAUUACGGGAA | -2.12 ± 0.17 | -2.4 ± 0.22
5 | AAUCAGCAAUAUUACGCGAA | -0.0302 ± 0.071 | 0.278 ± 0.098
6 | GUCCAGCAAUAUUACGAGUC | -1.23 ± 0.097 | -0.164 ± 0.098
7 | AAAAAGCAAUAUUACGUGUA | -1.78 ± 0.089 | -1.33 ± 0.085
8 | ACAAAGCAAUAUUACGCGCC | -0.241 ± 0.083 | -0.055 ± 0.1
9 | UGUAAGCAAUAUUACGUGAU | -3.5 ± 0.18 | -2.05 ± 0.17
10 | GAAGAGCAAUAUUACGAUUG | -2.53 ± 0.29 | -2.4 ± 0.39
11 | GAGGAGCAAUAUUACGGGGG | -3.09 ± 0.27 | -3.13 ± 0.47
12 | AGAAAGCAAUAUUACGGAAG | -2.64 ± 0.19 | -1.71 ± 0.22
13 | CUAAAGCAAUAUUACGCUAU | -4.21 ± 0.31 | -2.75 ± 0.3
14 | GCAGAGCAAUAUUACGGGUC | -3.78 ± 0.47 | -2.29 ± 0.24
15 | UGUAAGCAAUAUUACGCAGA | -3.67 ± 0.42 | -1.72 ± 0.34
16 | GCGGAGCAAUAUUACGCCAG | -2.22 ± 0.42 | -2.26 ± 0.42
17 | UGUCAGCAAUAUUACGGUUC | -3.07 ± 0.2 | -1.63 ± 0.24
18 | GGUGAGCAAUAUUACGGUCG | -1.29 ± 0.077 | -0.612 ± 0.1
19 | ACAUAGCAAUAUUACGAUCU | 0.0431 ± 0.089 | -0.196 ± 0.1
20 | UCGAAGCAAUAUUACGCCGU | -0.599 ± 0.12 | -0.739 ± 0.12
21 | AAACAGCAAUAUUACGACAA | -0.939 ± 0.095 | -0.417 ± 0.11

Row | Sequence | self-splicing fitness (ln) (30 °C) | self-splicing fitness (ln) (37 °C)
22 | UAGUAGCAAUAUUACGUUUA | -1.48 ± 0.16 | -1.22 ± 0.14
23 | GAAUAGCAAUAUUACGUACG | -1.38 ± 0.12 | -1.45 ± 0.14
24 | ACGCAGCAAUAUUACGCAGG |  | -1.05 ± 0.15
25 | UACCAGCAAUAUUACGUCGC | -2.97 ± 0.17 | -1.88 ± 0.2
26 | GUGUAGCAAUAUUACGUCGA | -1.11 ± 0.14 | -0.586 ± 0.12
27 | CCAGAGCAAUAUUACGUGCC | -3.42 ± 0.38 | -2.76 ± 0.32
28 | UCUGAGCAAUAUUACGGUAC | -3.24 ± 0.47 | 
29 | UGGUAGCAAUAUUACGGAUG | -1.34 ± 0.15 | 0.065 ± 0.13
30 | CUGAAGCAAUAUUACGGCAU | -2.91 ± 0.12 | -3.52 ± 0.31
31 | UAGGAGCAAUAUUACGGACA | -3.74 ± 0.4 | -0.442 ± 0.18
32 | GGCGAGCAAUAUUACGGCGA | -0.138 ± 0.078 | -0.0802 ± 0.092
33 | AUCUAGCAAUAUUACGUGGC | -2.58 ± 0.23 | -2.92 ± 0.31
34 | GUAAAGCAAUAUUACGUCGA | -0.947 ± 0.088 | -0.407 ± 0.1
35 | GACCAGCAAUAUUACGGCUA | 0.142 ± 0.055 | 0.0036 ± 0.068
36 | UUUCAGCAAUAUUACGAGGG | -3.94 ± 0.25 | -1.02 ± 0.13
37 | CCUAAGCAAUAUUACGCGGC | -1.89 ± 0.33 | -2.13 ± 0.42
38 | CACAAGCAAUAUUACGAUCA | -2.43 ± 0.11 | -1.55 ± 0.12
39 | CUCUAGCAAUAUUACGUCCA |  | -2.12 ± 0.4
40 | AUCCAGCAAUAUUACGAACU | -1.98 ± 0.15 | -0.753 ± 0.18
41 | ACCUAGCAAUAUUACGUAGA | -2.73 ± 0.16 | -2.49 ± 0.21
42 | GACAAGCAAUAUUACGGGAU | -2.65 ± 0.14 | -0.632 ± 0.12

Row | Sequence | self-splicing fitness (ln) (30 °C) | self-splicing fitness (ln) (37 °C)
43 | GCAUAGCAAUAUUACGUAGG | -2.32 ± 0.11 | -1.31 ± 0.13
44 | AAUCAGCAAUAUUACGGAGG | -1.01 ± 0.084 | -1.18 ± 0.1
45 | CACUAGCAAUAUUACGGCUU | -3.4 ± 0.24 | -1.91 ± 0.21
46 | AACGAGCAAUAUUACGUGCU | -3.09 ± 0.21 | -2.16 ± 0.28
47 | AUAGAGCAAUAUUACGCCGA | -1.81 ± 0.19 | -0.0699 ± 0.32
48 | ACUCAGCAAUAUUACGGGAA | -0.98 ± 0.088 | -0.568 ± 0.095
49 | GGCCAGCAAUAUUACGCUGG | -3.98 ± 0.27 | -2.27 ± 0.24
50 | GAGCAGCAAUAUUACGGAUU | -1.2 ± 0.1 | 0.538 ± 0.11
51 | CUCCAGCAAUAUUACGUUGU | -4.22 ± 0.15 | -3.49 ± 0.21
52 | ACAAAGCAAUAUUACGAUUA | -1.37 ± 0.11 | -0.593 ± 0.11
53 | AUUGAGCAAUAUUACGAGAC |  | -0.883 ± 0.45
54 | AAUCAGCAAUAUUACGUGGG | -2.12 ± 0.11 | -1.09 ± 0.12
55 | CUAAAGCAAUAUUACGUAAU | -4.33 ± 0.29 | -2.54 ± 0.23
56 | GUUAAGCAAUAUUACGGACU | -2.88 ± 0.2 | -1.8 ± 0.2
57 | CUACAGCAAUAUUACGUUGU | -3.66 ± 0.14 | -3.95 ± 0.21
58 | GAUUAGCAAUAUUACGGCAC | -0.128 ± 0.13 | -0.42 ± 0.12
59 | AAGAAGCAAUAUUACGCCCG | -0.579 ± 0.18 | -1.38 ± 0.23
60 | UCACAGCAAUAUUACGUUGU | -4.29 ± 0.18 | -2.14 ± 0.12
61 | AGCAAGCAAUAUUACGAGCU | -3.42 ± 0.17 | -2.15 ± 0.21
